Experimental data reported in the supplement of paper PMC9170038.

Key:
MS2 coat protein [1] = assay: apparent KD of MS2 coat protein, switch ON state; designed switch direction (-1 OFF switch, 1 ON switch): -1; higher = weaker reporter binding; details: FMN input: 0 or 200 uM; Eterna round: R93 (includes R88 designs)
Procedure, shortened: (§1)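 Illumina sequencing clusters served as templates for on-chip transcription of the designed RNA switches. SNAP-549-labelled MS2 coat protein was then titrated in twofold steps from 0.7 or 1.5 nM to 3 µM, allowing 0.8–1.5 h per step at first and 10–20 min per step later. The buffer held 100 mM Tris-HCl pH 7.5, 80 mM KCl and 4 mM MgCl2, without or with constant ligand. Apparent KD is the median per design of normalised cluster binding-curve fits.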

MS2 coat protein [2] = assay: apparent KD of MS2 coat protein, switch OFF state (with FMN for OFF switches, without FMN for ON switches); designed switch direction (-1 OFF switch, 1 ON switch): -1; higher = weaker reporter binding; details: FMN input: 0 or 200 uM; Eterna round: R93 (includes R88 designs)
Procedure, shortened: as §1

Sequence | apparent KD of MS2 coat protein (MS2 coat protein [1]) [nM] | apparent KD of MS2 coat protein (MS2 coat protein [2]) [nM]
AACAGUACAGGAUAUACAUGAGGAUCACCCAUGUGAAAAUUAAGUGGGAAACCACAAUGUAGAAGGGUACUGGA [Mat - Exclusion 3 - Eli mod - D50] | 121 | 109
AACAGUACAGGAUAUACAUGAGGAUCACCCAUGUGACAAUUAAGUGGCGUACCACAGUGUAGAAGGGUACUGGA [Ruby 84] | 93.1 | 113
AACAGUACAGGAUAUACAUGAGGAUCACCCAUGUGAGAAUUAAGUAGAUUGCCACAAAGUAGAAGGGUACUGGA [Ruby 98] | 59.3 | 80.9
AACAGUACAGGAUAUACAUGAGGAUCACCCAUGUGAGACUUAAGUGGCGUACCACAAAGUAGAAGGGUACUGGA [JL Maslow Revisted mod 8] | 84.1 | 386
AACAGUACAGGAUAUACAUGAGGAUCACCCAUGUGGGUGUUAAGUGGCGUACCACAAAGUAGAAGGGUACUGGA [JL In the Red CG] | 327 | 106
AACAUGUCAGGAUAUGCGAAGGCGUCUGACAGACGAGGCUAGCAGAAGGGACAUGAGGAUCACCCAUGUAAAAA [Mod of Power Strip by EINando888 - changed 3 and 30 to C] | 111 | 48.8
AACAUGUGAGGAUAUGUACGAAAAAAUAAAAAAAUAAAAGUACAGAAGGCACAUGAGGAUCACCCAUGUGAAAA [EX4 395: Minimal 8] | 176 | 271
AACAUGUGAGGAUAUUUAAGAAAAGAAAAGAAAGAAAAGAAAAAGAAGGCACAUGAGGAUCACCCAUGUAAGAA [EteRNA is fun!] | 24.1 | 26
AACCAACAUGAGGAUCACCCAUGUCAGGAUAUGCAAACAACAAACAACAAACAACAAAGCAGAAGGGACAACAA [63%, Olong, 1] | 15.2 | 21.1
AACCUGCUAGGAUAUACAGCAGGGAUUCGAAAACCCACGAAACAUGAGGAUCACCCAUGUAGAAGGAGUAGGGA [Teainis] | 20.3 | 16.1
AACGAGUCAGGAUAUACAAAAAAUAAAUAAAUAAAAUAAAAGUAGAAGGGACAUGAGGAUCACCCAUGUAAAUA [JR_Exc004_Sub020] | 59.3 | 44
AACUAGCUAGGAUAUACAUGAGGAUCACCCAUGUAAAAAAAAAAAAAAAGAUAUAUAUGUAGAAGGAGCUAGUA [Mod of Brourd] | 30.5 | 41.3
AACUAGCUAGGAUAUACAUGAGGAUCACCCAUGUAAAAAAAAAAAAAAAGAUCAAAAUGUAGAAGGAGCUAGUA [Design 2 - Brourd - Exclusion 3] | 59.6 | 58.5
AACUAGUCAGGAUAUACGAACAUGUCAAAAAACAUAAAGGGACAUGAGGAUCACCCAUGUAGAAGGGACUAACA [74%, Web mod - With 5 less G's] | 299 | 500
AACUAGUCAGGAUAUACGAACAUGUCAAAAGACGUGAAGGGACAUGAGGAUCACCCAUGUAGAAGGGACUAGCA [74%, Web mod - With 1 less G's] | 47.1 | 147
AACUGACAUGAGGAUCACCCAUGUCAGGAUAUGACUUGACGAAAAAAAACAUGUCAUGUCAGAAGGGACAUGGA [Design 89: Sub-opt Z] | 26.4 | 27.6
AACUGACAUGAGGAUCACCCAUGUCAGGAUAUGAUAUGUAAAAAAAAAAAAAUACUUAUCAGAAGGGACAUGAA [Design 44: Sub-opt CB] | 15.1 | 14.1
AACUGACAUGAGGAUCACCCAUGUCAGGAUAUGCUUCAUAAAAAAAAAAAAAAAUGAUGCAGAAGGGACAUGGA [Design 29 :P Sub-opt 5] | 20 | 24.5
AACUGACAUGAGGAUCACCCAUGUCAGGAUAUGCUUCAUAAAAAGAAACAAAAAUGAUGCAGAAGGGAUAUGGA [Design 35 :P Sub-opt 11] | 13 | 13.9
AACUGACAUGAGGAUCACCCAUGUCAGGAUAUGCUUCAUAAAACAAAAACAAAAUGAUGCAGAAGGGACAUGAA [Design 26 :P Sub-opt 2] | 16.3 | 14.6

Sequence | apparent KD of MS2 coat protein (MS2 coat protein [1]) [nM] | apparent KD of MS2 coat protein (MS2 coat protein [2]) [nM]
AACUGUACAGGAUAUACAUGAGGAUCACCCAUGUGAGAAUUAAGUGGGAAACCACAAAGUAGAAGGGUACAGGA [Mat - Exclusion 3 - JL mod - D19] | 29.1 | 162
AAGAAACAUGAGGAUCACCCAUGUCAGGAUAUACAAAAGAAAAGAAAAGAAAGAAGAAGUAGAAGGGACAAAGG [Neitiqerty Siptah] | 38.3 | 69.3
AAGAAACAUGAGGAUCACCCAUGUCAGGAUAUCAAAAAGAAAAGAAAAGAAAGAAGAAUGAGAAGGGACAAAGG [Meryibre Khety I] | 50.7 | 61.7
AAGAAACAUGAGGAUCACCCAUGUCAGGAUAUGCAAAACUGACGAAAGUCAGAAGAAAGCAGAAGGGACUAGAA [5-pair stack] | 29.1 | 52
AAGAAACAUGAGGAUCACCCAUGUCAGGAUAUUCAAAAGAAAAGAAAAGAAAGAAGAAGAAGAAGGGACAAAGG [Neferkare II] | 57.6 | 66.1
AAGAAACAUGAGGAUCACCCAUGUGAGGAUAUACAAAAGAAAAGAAAAGAAAGAAGAAGUAGAAGGUACAAAGG [Merenre Nemtyemsaf II] | 23.7 | 26.6
AAGAAACAUGAGGAUCACCCAUGUGAGGAUAUGGAAAAGAAAAGAAAAGAAAGAAGAACCAGAAGGCACAAAGG [Neferkare (VI) Pepiseneb] | 71.8 | 50.8
AAGAAAGGAGGAUAUACAUGAGGAUCACCCAUGUAAAAGAAAGAAAAGGGAAAGAAAAGUAGAAGGCCUAAGAA [Usermaatre-meryamun Ramesses III] | 39.2 | 28.7
AAGAAAGGAGGAUAUACAUGAGGAUCACCCAUGUAAAAGAAAGAAAGGGAAAAGAAAAGUAGAAGGCCUAAGAA [Shoshenq IV] | 35.3 | 41.2
AAGAACACAGGAUAUACAUGAGGAUCACCCAUGUAAAAGAAAGAAAAGGGAAAGAAAAGUAGAAGGGUGAAGAA [Nebkheperure Tutankhaten] | 44.7 | 51.3
AAGAACCAAGGAUAUACAUGAGGAUCACCCAUGUAAAAGAAAGAAAAGGGAAAGAAAAGUAGAAGGUGGAAGAA [Userkheperure Seti II] | 25.7 | 27.3
AAGAACCGAGGAUAUACAUGAGGAUCACCCAUGUAAAAGAAAGAAGGGAAAGAGAAAAGUAGAAGGCGGAAGAA [Usermaatre Shoshenq VI] | 36.1 | 34.3
AAGAACCGAGGAUAUACUAAAGAAAUGAAAAGAAAUAAAGAACAUGAGGAUCACCCAUGUAGAAGGCGGAAGAA [Nebefawre] | 27.4 | 23.4
AAGAACCUAGGAUAUACUAAAGAAAUGAAAAGAAAUAAAGAACAUGAGGAUCACCCAUGUAGAAGGAGGAAGAA [Sewadjkare III] | 43.4 | 26.1
AAGAACGAAGGAUAUACAUGAGGAUCACCCAUGUAAAAGAAAGAAGGGAAAGAGAAAAGUAGAAGGUCGAAGAA [Usermaatre Piye] | 22.2 | 24.4
AAGAACGCAGGAUAUACAUGAGGAUCACCCAUGUAAAAGAAAGAGGGAAAAGAGAAAAGUAGAAGGGCGAAGAA [Setepenre-meryamun Ptolemy I Soter] | 37 | 57.8
AAGAACGGAGGAUAUACUAAAGAAAUGAAAAGAAAUAAAGAACAUGAGGAUCACCCAUGUAGAAGGCCGAAGAA [Sehebre] | 17 | 23.7
AAGAACGUAGGAUAUACAAAAUAAAAGAAAAGAAAGAAAGAACAUGAGGAUCACCCAUGUAGAAGGACGAAGAA [Sekhemrekhutawy Khabaw] | 21.6 | 21.8
AAGAACUGAGGAUAUACAAAAUAAAAGAAAAGAAAGAAAGAACAUGAGGAUCACCCAUGUAGAAGGUAGAAGAA [Maakherure Amenemhat IV] | 31.3 | 33.4
